Results published in patent publication US20240287172A1 (SCIRHOM, published 2024).
Substitutions are numbered along the chain they refer to.

B1: antibody 16 (antibody, V domains shown)
VH: QVTLKESGPGILQPSQTLSLTCSFSGFSLSTFALGVGWIRQPSGRGLEWLAHIWWDDDKYYNPALKSRLTISKDTSKNHVFLKIANVDTADTATYYCARITTYYYGMDYWGQGTSVTVSS
VL: DIVLSQSPATLSVTPGDSVSLFCRASQSIGNHLHWYQQESHASPRLLIKYASQSISGIPSRFSGSGSGTDFTLSINSVETEDFGMYFCQQSYNWPLTFGAGTKLELK
notes: mouse IgG, kappa light chain; also called clone #16; purified antibody 16
B2: antibody 3 (antibody, V domains shown)
VH: QVTLKESGPGILQPSQTLSLTCSFSGFSLTTFAMGIGWVRQPSGKGLEWLAHIWWDGEKYNNPVLKSRLTISKDTSKNQVFLRIANVDTPDTATYYCARISSIYYIIDNWGQGTSVTVSS
VL: B1 VL with S5T, D17H, F22S, G30S, H32N, Q38K, E39K, A42E, A51V
notes: mouse IgG, kappa light chain; also called clone #3; purified antibody 3
B3: antibody 48 (antibody, V domains shown)
VH: QVQLQQSGTELVRPGTSVKVSCKASGYAFTNYLIEWVKQRPGQGLEWIGVINPGSGFTKYNEKFKGKATLTADKSSSTVYMHLSSLTSEDSAVYFCARGLYRAMDYWGQGTSVTVSS
VL: DIQMTQSPASQSASLGESVTITCLASQTIATWLAWYQQKPGKSPQLLIYGATTLADGVPSRFSGGGSGTKFSFKISSLQAEDFVSYYCQQLYSTPYTFGGGTKLEIK
notes: mouse IgG, kappa light chain; also called clone #48; purified antibody 48
B4: antibody 50 (antibody, V domains shown)
VH: B3 VH with T9A, T16A, T30S, V79A, H82Q
VL: B3 VL with A30G, G50A, T52A, T53S, S85N, L91I
notes: mouse IgG, kappa light chain; also called clone #50; purified antibody 50
B5: antibody 5 (antibody, V domains shown)
VH: QVTLKESGPGILQPSQTLSLTCSFSGFSLSTFGMGVGWIRQPSGKGLEWLAHIWWDDEKYYNSALKSRLTISKATSKNQAFLKIANVDTADTATYYCARISNYGSNYWYFNVWGTGTTVTVSS
VL: QVVLTQSPALMSASPGEKVTMTCSAGSSVSCMYWYQQKPGSSPRVLIYDTSNLASGVPARFTGSGSGTSYSLTISRMEAEDAASYYCQQWNSYPLTFGAGTKLELK
notes: mouse IgG, kappa light chain; also called clone #5; purified antibody 5
B6: antibody 43 (antibody, V domains shown)
VH: B5 VH with T3A, P42S, H52N, E58D, S63P, A74D, T75A, S101G, N111D
VL: QIVLTQSPAIMSASPGERVTMTCSANSRISYMYWYQQKPGSSPRLLIYDTSNLASGVPVRFSGSGSGTSYSLTISRMEAEDAATYNCQQWSSYPLTFGAGTKLELK
notes: mouse IgG, kappa light chain; also called clone #43; purified antibody 43
B7: antibody 42 (antibody, V domains shown)
VH: B5 VH with F24L, M34R, S63P, A74D, A80V, K83R, S101Q, N111D
VL: B6 VL with Q1L, R18K, S24G, N26T, Y33F, L45V, M77V, A82V, N86Y, S91N
notes: mouse IgG, kappa light chain; also called clone #42; purified antibody 42
B8: antibody 44 (antibody, V domains shown)
VH: B5 VH with G44E, E58D, S63P, A74D, A80I, A85T, D91E, A98S, S101G, N111D
VL: QIVLTQSPAVMSASPGEKVTMTCTASSSVYYMYWYQQTPGSSPRLLIYDTSNLASGVPVRFSGSGSGTSYSLTISRMEAEDAATYYCQQWNTYPLTFGAGTKLELK
notes: mouse IgG, kappa light chain; also called clone #44; purified antibody 44
B9: antibody 22 (antibody, V domains shown)
VH: B5 VH with A80V
VL: B5 VL with C31Y, S84T
notes: mouse IgG, kappa light chain; also called clone #22; purified antibody 22
B10: antibody 34 (antibody, V domains shown)
VH: QVTLKESGPGILQPSQTLSLTCSFSGFSLSTFSLGVGWIRQSSGKGLEWLAHIWWDDEKYYNPALKSRLTISKDTSKNQVFLKIANVDAADTATYYCARAYYSKSYYALDYWGQGTSVTVSS
VL: DIQMTQSPSSLSASLGERVSLTCRASQEISGYLSWLQQKPDGTIKRLIYAASTLDSGVPKRFSGSRSGSDYSLAISSLESEDFADYYCLQYANFPFTFGSGTKLEIK
notes: mouse IgG, kappa light chain; also called clone #34; purified antibody 34

Tests used:
miR2-FL-WT-T7 = target: T1, miR2-FL-WT-T7 (mouse, UniProt Q80WQ6 1-827); test: FACS, MEF-DKO cells, 3 µg/ml
T1 construct: on MEF-DKO cells
T1 sequence: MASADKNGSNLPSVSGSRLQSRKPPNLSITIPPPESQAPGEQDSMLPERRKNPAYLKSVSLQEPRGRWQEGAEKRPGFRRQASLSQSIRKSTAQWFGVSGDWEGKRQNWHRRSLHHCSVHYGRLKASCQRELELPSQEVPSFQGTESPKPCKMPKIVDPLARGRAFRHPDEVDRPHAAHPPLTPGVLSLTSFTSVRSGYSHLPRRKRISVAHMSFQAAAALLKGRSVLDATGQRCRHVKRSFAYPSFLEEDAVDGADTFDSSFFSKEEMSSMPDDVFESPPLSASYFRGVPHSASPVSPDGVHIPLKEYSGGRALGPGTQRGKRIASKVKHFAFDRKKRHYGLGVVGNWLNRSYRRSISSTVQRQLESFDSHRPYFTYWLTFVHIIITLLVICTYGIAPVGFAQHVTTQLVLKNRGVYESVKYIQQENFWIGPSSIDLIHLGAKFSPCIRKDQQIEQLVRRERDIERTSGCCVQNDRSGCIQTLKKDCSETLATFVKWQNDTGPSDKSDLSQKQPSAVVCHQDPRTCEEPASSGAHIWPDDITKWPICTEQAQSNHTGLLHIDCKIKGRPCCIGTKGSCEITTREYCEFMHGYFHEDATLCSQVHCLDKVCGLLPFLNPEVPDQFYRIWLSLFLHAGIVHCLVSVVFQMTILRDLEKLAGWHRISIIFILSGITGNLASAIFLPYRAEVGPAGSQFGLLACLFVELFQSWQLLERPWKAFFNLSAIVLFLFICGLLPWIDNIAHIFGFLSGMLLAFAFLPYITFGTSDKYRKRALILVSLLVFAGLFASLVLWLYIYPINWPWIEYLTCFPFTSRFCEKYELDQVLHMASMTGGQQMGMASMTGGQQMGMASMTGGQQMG
Text: (§1) In brief, immortalized MEF-DKO-hiR2-FL-WT-T7 cells, MEF-DKO-miR2-FL-WT-T7 cells and MEF-DKO-hiR2-FL-R441K-T7, MEF-DKO-hiR2-FL-K443R-T7, MEF-DKO-hiR2-FL-V459I-T7, MEF-DKO-hiR2-FL-G481Q-T7, MEF-DKO-hiR2-FL-L488R-T7, MEF-DKO-hiR2-FL-L493I-T7, MEF-DKO-hiR2-FL-D496T-T7, MEF-DKO-hiR2-FL-H505R-T7, MEF-DKO-hiR2-FL-Q512L-T7, MEF-DKO-hiR2-FL- R513K-T7, MEF-DKO-hiR2-FL-D528N-T7, MEF-DKO-hiR2-FL-P533-T7, MEF-DKO-hiR2-FL-M534S-T7, MEF-DKO-hiR2-FL-G540S-T7, MEF-DKO-hiR2-FL-R543Q-T7, MEF-DKO-hiR2-FL-T544P-T7, MEF-DKO-hiR2-FL-G546A-T7, MEF-DKO-hiR2-FL-A547V-T7, MEF-DKO-hiR2-FL-R582Q-T7, MEF-DKO-hiR2-FL-F588L-T7, MEF-DKO-hiR2-FL-M591I-T7, MEF-DKO-hiR2-FL-E594K-T7, MEF-DKO-hiR2-FL-E626D-T7, MEF-DKO-hiR2-FL-L657I-T7, and MEF-DKO-hiR2-FL-H835Y-T7 cells were harvested with 10 mM EDTA in PBS, washed and resuspended in FACS buffer (PBS, 3% FBS, 0.05% sodium azide), and seeded in Nunc U-bottom 96-well plates (Thermo Fisher Scientific, USA) at approximately 3×10⁵ cells per well.
(§2) To pellet cells and remove supernatants, the plates were centrifuged at 1,500 rpm and 4° C. for 3 minutes. For primary staining, cells were resuspended in 100 μl per well of either FACS buffer alone (controls) or the purified antibodies 3, 5, 16, 22, 34, 42, 43, 44, 48, and 50 of the invention at 3 μg/ml FACS buffer and incubated on ice for 1 hour. Afterwards, plates were centrifuged at 1,500 rpm and 4° C. for 3 minutes and washed twice with 200 μl per well of FACS buffer. For secondary staining, cells were spun down and resuspended in 100 μl per well of PE-conjugated goat anti-mouse IgG F(ab′)2 detection fragment (Dianova, Germany) diluted 1:100 in FACS buffer. Protected from light, the cell suspensions were incubated on ice for 1 hour. Plates were then centrifuged at 1,500 rpm and 4° C. for 3 minutes and washed three times with 200 μl per well of FACS buffer. Finally, cells were resuspended in 150 μl per well of FACS buffer and analyzed using a BD Accuri™ C6 Plus flow cytometer (Becton Dickinson, Germany).

hiR2-FL-R543Q-T7 = target: T2, hiR2-FL-R543Q-T7 (human, UniProt Q6PJF5 1-856); test: FACS, MEF-DKO cells, 3 µg/ml
T2 sequence: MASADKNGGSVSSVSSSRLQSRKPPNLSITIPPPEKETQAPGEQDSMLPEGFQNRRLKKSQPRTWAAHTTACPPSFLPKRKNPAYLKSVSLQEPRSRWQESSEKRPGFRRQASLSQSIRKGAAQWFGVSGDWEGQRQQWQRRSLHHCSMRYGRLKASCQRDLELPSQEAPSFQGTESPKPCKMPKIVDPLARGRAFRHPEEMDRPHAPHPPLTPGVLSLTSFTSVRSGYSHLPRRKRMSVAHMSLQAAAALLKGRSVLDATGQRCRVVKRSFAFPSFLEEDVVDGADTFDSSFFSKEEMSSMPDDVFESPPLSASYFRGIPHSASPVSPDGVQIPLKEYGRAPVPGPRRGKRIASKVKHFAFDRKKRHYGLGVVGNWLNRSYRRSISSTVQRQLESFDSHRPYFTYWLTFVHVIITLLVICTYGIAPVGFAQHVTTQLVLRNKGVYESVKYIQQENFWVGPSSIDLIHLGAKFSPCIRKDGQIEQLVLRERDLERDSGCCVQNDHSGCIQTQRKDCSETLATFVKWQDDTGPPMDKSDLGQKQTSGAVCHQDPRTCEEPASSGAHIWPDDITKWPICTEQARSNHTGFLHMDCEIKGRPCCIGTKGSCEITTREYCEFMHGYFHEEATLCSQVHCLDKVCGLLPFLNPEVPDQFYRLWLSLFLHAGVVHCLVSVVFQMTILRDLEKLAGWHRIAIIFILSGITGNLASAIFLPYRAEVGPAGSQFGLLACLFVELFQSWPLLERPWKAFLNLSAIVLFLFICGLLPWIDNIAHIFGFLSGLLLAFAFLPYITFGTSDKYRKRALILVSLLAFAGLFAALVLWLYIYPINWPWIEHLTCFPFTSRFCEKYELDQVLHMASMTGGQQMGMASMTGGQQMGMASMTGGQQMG
Text: as §1, §2

Binder | loss of binding vs wild type (miR2-FL-WT-T7) [%] | loss of binding vs wild type (hiR2-FL-R543Q-T7) [%]
B1 | ≥ 95 | –
B2 | ≥ 95 | ≥ 60
B3 | ≥ 60 | –
B4 | ≥ 95 | ≥ 30
B5 | ≥ 95 | ≥ 95
B6 | ≥ 95 | ≥ 95
B7 | ≥ 95 | ≥ 95
B8 | ≥ 95 | ≥ 60
B9 | ≥ 95 | ≥ 60
B10 | ≥ 95 | ≥ 95
